Test results: publication PMC2844450

Legend:
Assay in all cases: enzyme inhibition kinetics
[1] = molecular target: Factor Xa (activated factor X), plasma protein
[2] = molecular target: Bovine α-chymotrypsin (bovine)
[3] = molecular target: fXa-D189S (factor Xa with Asp-189 replaced by Ser)
[4] = molecular target: Factor Xa (activated factor X), plasma protein; remark: listed apart in the source
[5] = molecular target: fXa-D189S (factor Xa with Asp-189 replaced by Ser); remark: listed apart in the source

Work on “Human wild-type antithrombin (from UniProt P01008 33-464) (natural protein)” yielded a k2 (second-order association rate constant of inhibition), no heparin [1] of 3090 M⁻¹ s⁻¹, a k2 with heparin [1] of 4.35e+07 M⁻¹ s⁻¹ and a k2 (second-order association rate constant of inhibition), no heparin [2] of 83 M⁻¹ s⁻¹. For the same molecule, the KD with heparin (ternary encounter complex, first step) [3] was 194 nM, the k2 with heparin [3] was 1.02e+06 M⁻¹ s⁻¹ and the k2 with heparin (k/KD) [3] was 1e+06 M⁻¹ s⁻¹.

“ZPI in complex with protein Z (PZ) (from UniProt Q9UK55 22-444; P22891 41-400)” gave a k2 (second-order rate constant of inhibition), presence of PZ [1] of 780000 and a k2 (second-order rate constant of inhibition), presence of PZ [3] of 830000.

B1: Protein Z-dependent protease inhibitor, wild type (natural protein)
chain: LAPSPQSPETPAPQNQTSRVVQAPKEEEEDEQEASEEKASEEEKAWLMASRQQLAKETSNFGFSLLRKISMRHDGNMVFSPFGMSLAMTGLMLGATGPTETQIKRGLHLQALKPTKPGLLPSLFKGLRETLSRNLELGLTQGSFAFIHKDFDVKETFFNLSKRYFDTECVPMNFRNASQAKRLMNHYINKETRGKIPKLFDEINPETKLILVDYILFKGKWLTPFDPVFTEVDTFHLDKYKTIKVPMMYGAGKFASTFDKNFRCHVLKLPYQGNATMLVVLMEKMGDHLALEDYLTTDLVETWLRNMKTRNMEVFFPKFKLDQKYEMHELLRQMGIRRIFSPFADLSELSATGRNLQVSRVLQRTVIEVDERGTEAVAGILSEITAYSMPPVIKVDRPFHFMIYEETSGMLLFLGRVVNPTLL
B1 gave a k2 (second-order rate constant of inhibition), absence of PZ [4] of 1900 and a k2 (second-order rate constant of inhibition), absence of PZ [5] of 2300.
